Data set [1] in a line: PK study, single IV bolus dose in nude mice. Type of data set: in vivo. Here is the method: (§1) PK studies. PK studies were conducted in mice, rats, and cynomolgus monkeys.
The expected serum concentration at the time of serum sample collection was estimated based on PK parameters determined in the PK study in non-tumor bearing mice (described above). […] These PK parameters were used to estimate serum concentration by WinNonlin Enterprise Version 5.0.1 (Pharsight Corp., Mountain View, Calif.) for doses tested in IV infusion study.
Pharmacokinetic Assays for MetMAb in Mouse Serum and Rat Serum. […] A direct ELISA assay was developed for quantification of MetMAb in mouse serum and Sprague-Dawley rat serum. Plates were coated with human c-Met-Fc fusion protein to which samples, standards, and dosing solutions were added. Goat anti-human F(Ab′)2 horseradish peroxidase (HRP) was used for detection. Tetrapethyl benzidine (TMB) peroxidase substrate was added for signal development. The substrate reaction was stopped with phosphoric acid. The plates were read at an absorbance of 450 nm. […] The lower limit of quantitation in the assay was 0.47 ng/mL and the upper limit of quantification was 30 ng/mL. The minimum dilution for nude mouse serum samples was 1/10, resulting in a minimum quantifiable concentration of 4.7 ng/mL, with an indefinite upper limit. The minimum dilution for rat serum samples was 1/50, resulting in a minimum quantifiable concentration of 23.5 ng/mL, with an indefinite upper limit.
(§2) Mouse, Rat, and Cynomolgus Monkey PK data analysis. […] PK parameters were estimated using WinNonlin Enterprise Version 5.0.1 (Pharsight Corp., Mountain View, Calif.). The nominal dose administered for each group was used for modeling. Since a single concentration-time profile for mice was determined for each group, one estimate of each PK parameter was obtained and is reported, along with the standard error (SE) of the fit of each PK parameter. For rats and monkeys, PK parameters are reported as mean (+/−SD).
(§3) For IV administrations, a two-compartment elimination model with IV bolus input and first-order elimination was used to describe the observed data (WinNonlin Model 7). Concentrations were weighted using iterative reweighting (1/ŷ^2) and the Nelder-Mead minimization algorithm. The following equation was used to calculate concentration over time in Model 7: […]

Data set [2] in a line: PK studies in mice, rats, and cynomolgus monkeys (stated across species). Type of data set: in vivo. The following applies: cynomolgus monkeys. The method, then:
as §1, §2, §3

Data set [3] concerns c-met. Kind of data set: Binding to c-met in cynomolgus monkeys.
Data set [4] relates to KP4 human pancreatic ductal cell carcinoma cells. Description: Dose fractionation study in KP4 xenograft mice. The settings on record: total 2.5, 7.5 or 30 mg/kg as Q1W, Q2W or Q3W. Type of data set: in vivo. Here is the method: For example, a 30 mg/kg total dose was given as 10 mg/kg Q1W, 15 mg/kg Q2W, or 30 mg/kg Q3W.
In all cases, tumors were measured with calipers throughout the study.

Data set [5] can be described thus: Estimation of human PK by allometric scaling. Further details: species or system humans. The source says:
Estimation of Human PK Profile.
One approach was allometric scaling, which is based on the assumption that many physical and physiological parameters vary according to a mathematical function of body weight (BW)
Y=a×BWb • where Y is the variable of interest, a is the y-axis intercept, and b is slope.
The log plot of CL value versus body weight, repression, and R-squared values were generated by KaleidaGraph (version 3.6).

Data set [6] can be described thus: Repeat-dose safety study in cynomolgus monkeys. Type of data set: in vivo. The following applies: GLP toxicology study. The source says:
Repeat-dose safety study.

Data set [7] is described as follows: Phase I dose-escalation study: pharmacokinetics. Type of data set: in vivo, humans. The following applies: patients. The method, then: Study design. There are two stages to this study, a dose-escalation stage and an expansion stage.
Study treatment. […] Dose levels tested in Phase I were: 1 mg/kg, 4 mg/kg, 10 mg/kg, 20 mg/kg, and 30 mg/kg.
MetMAb was administered as an IV infusion. […] The MetMAb infusion was slowed or interrupted for patients experiencing infusion-associated symptoms.
Pharmacokinetics of the study drug were determined by serially monitoring of serum samples for MetMAb throughout the study.

In data set [8] the test system is HGF. Kind of data set: Phase I study: serum HGF levels by ELISA. Type of data set: in vivo, humans. Here is the method:
(§4) Pre- and post-dose serum is collected for evaluation of pharmacodynamic (PD) biomarkers that could be affected by inhibition of Met signaling. In addition, archival tissue is obtained for exploratory diagnostic assessments.
Serum HGF levels were determined using ELISA. […] For patient 12007, HGF expression increased to baseline levels in subsequent cycles. For patient 11009, HGF levels decreased by 70% post drug treatment and remained low for the duration of the study.

Data set [9] concerns IL-8. Kind of data set: Phase I study: serum IL-8 levels by electrochemiluminescence. Type of data set: in vivo, humans. Here is the method: as §4
Serum IL-8 levels (diluted 1:5) were determined using an electrochemiluminescence based method as directed by the manufacturer (Meso Scale Discovery, Gaithersburg Md.; Cat. No. K111ANC).

The subject of data set [10] is locally advanced or metastatic solid tumors. Description: Phase I study: anti-tumor activity (RECIST). Type of data set: in vivo, humans. Here is the method: The following activity outcome measures are assessed: objective response, defined as a complete or partial response confirmed≧4 weeks after initial documentation; duration of objective response; and progression-free survival. Objective response and disease progression will be determined using RECIST.
Patient selection criteria.

[11] abbreviates: Athymic nude mouse, single IV dose.
The mark [12] stands for this setting: non-tumor-bearing mice, two-compartmental model.

“Also recorded” adds a separate entry of the source.

Consider “MetMAb: recombinant, humanized, monovalent (one-armed) monoclonal antibody directed against human c-met”, for which, in data set [1] (setting [11]), the “Terminal Half-Life” value is on record as 4.70 days, the V1 was found to be 48.8 mL/kg and the Vss is on record as 140 mL/kg. Further, the Serum disposition entry in data set [1] (non-tumor-bearing mice) is “biphasic and exhibited dose-proportionality”. Further, in data set [1] (setting [12]), the “CLd (inter-compartmental clearance)” value was 190 mL/day/kg and the “V2 (apparent peripheral volume of distribution)” value was 90.7 mL/kg. This substance also gave a Beta half-life in data set [2] of 4 to 5 days. Moreover, the Binding to c-met entry in data set [3] is listed as “binds to c-met”. The “Efficacy at the same dose level with different dose regimens” value in data set [4] is reported as “similar”. Besides, the “Predicted clearance in humans” value in [5] is reported as 10 mL/day/kg. Moreover, the “Highest non-severely toxic dose” value in [6] was 100 mg/kg. Moreover, the “Inter-individual variability of serum concentrations at each dose level” value in data set [7] was “less than 30%”. The “Clearance compared to the other dose groups” value in [7] (1 mg/kg dose) was “slightly faster clearance”. Moreover, the Half-life result in [7] (IV Q3W) was “approximately 10 days”. Also, in [7] (dose range 4 to 30 mg/kg), the PK linearity result is on record as “linear pharmacokinetics”. In addition, the “Change in serum HGF expression, two patients with highest baseline HGF” value in data set [8] (24 h post drug treatment) is listed as “significant decrease; also recorded: significantly decreased”. Moreover, the “Change in serum HGF expression with MetMAb treatment, in general” value in [8] (Phase I patients) is reported as “little or no increase”. For the same substance, in data set [8] (remained low for the duration of the study), the “Decrease of serum HGF levels post drug treatment, patient 11009” value is 70%. The “Reduction in circulating IL-8” value in data set [9] (24 h following treatment, subjects with baseline IL-8 >50 pg/ml) is given as above 50%. Also, the “Change in serum IL8 following MetMAb infusions” value in [9] (most patients with baseline serum IL8 above normal controls) is recorded as “decrease in serum IL8”. The “Change in IL-8 expression post-MetMAb treatment” value in data set [9] (subjects with less than 50 pg/ml baseline IL-8) was “did not change significantly”. In [10] (21 patients, dose escalation stage), the “Progressive disease (patients)” value is given as “Three”. The “Response of patient 11009” value in [10] (gastric adenocarcinoma with metastatic liver lesion, CT Jun. 13, 2008, confirmed July 2008) is given as “complete response”. Moreover, the “Complete, objective response (patients)” value in data set [10] (gastric cancer patient, 20 mg/kg cohort) was “one”.

The values above are taken from patent publication US20110262436A1, “TREATMENT METHOD” (Genentech, Inc., priority 2008, published 2011).
